Consider seven molecules from publication PMC4960239, “Flavoprotein-Mediated Tellurite Reduction: Structural Basis and Applications to the Synthesis of Tellurium-Containing Nanostructures” (Frontiers in Microbiology, 2016).

One series has as its system O=[Te](O)O. The series is described as follows: purified protein. The class given is biochemical, Escherichia coli. As to conditions: 1 mM beta-mercaptoethanol.
A further series has as its target T1, GorA (Escherichia coli, UniProt P06715).
T1 construct: gene gor; His-tagged full-length, ASKA clone, HisTrap purified, ~49 kDa
Kind of series: Te0 formation, non-linear fit. As to conditions: 1 mM NADPH, 1 mM beta-mercaptoethanol, pH 9, 37 °C; substrate inhibition. The series is classed as biochemical.

Another series deals with T2, TrxB (Escherichia coli, UniProt P0A9P4).
T2 construct: His-tagged full-length, ASKA clone, HisTrap purified, ~35 kDa
The series is described as follows: Te0 formation, non-linear fit. The class given is biochemical. Conditions: 1 mM NADPH, 1 mM beta-mercaptoethanol, pH 10, 37 °C; substrate inhibition.

The target of a further series is T3, E3 (Escherichia coli, UniProt P0A9P0).
T3 construct: gene lpdA; His-tagged full-length, ASKA clone, HisTrap purified, ~56 kDa
Kind of series: Te0 formation, non-linear fit. The class given is biochemical. As to conditions: 1 mM NADPH, 1 mM beta-mercaptoethanol, pH 6, 37 °C; substrate inhibition.

T2 sequence (P0A9P4 2-321): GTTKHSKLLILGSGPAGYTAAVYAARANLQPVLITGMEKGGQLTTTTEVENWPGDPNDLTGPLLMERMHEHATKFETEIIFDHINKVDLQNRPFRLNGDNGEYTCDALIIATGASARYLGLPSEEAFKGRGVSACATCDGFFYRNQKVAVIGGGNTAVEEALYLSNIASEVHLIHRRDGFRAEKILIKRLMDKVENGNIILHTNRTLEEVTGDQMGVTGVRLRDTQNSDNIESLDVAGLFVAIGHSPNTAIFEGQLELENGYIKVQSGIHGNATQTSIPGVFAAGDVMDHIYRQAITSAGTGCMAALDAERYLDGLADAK
T3 sequence (P0A9P0 2-474): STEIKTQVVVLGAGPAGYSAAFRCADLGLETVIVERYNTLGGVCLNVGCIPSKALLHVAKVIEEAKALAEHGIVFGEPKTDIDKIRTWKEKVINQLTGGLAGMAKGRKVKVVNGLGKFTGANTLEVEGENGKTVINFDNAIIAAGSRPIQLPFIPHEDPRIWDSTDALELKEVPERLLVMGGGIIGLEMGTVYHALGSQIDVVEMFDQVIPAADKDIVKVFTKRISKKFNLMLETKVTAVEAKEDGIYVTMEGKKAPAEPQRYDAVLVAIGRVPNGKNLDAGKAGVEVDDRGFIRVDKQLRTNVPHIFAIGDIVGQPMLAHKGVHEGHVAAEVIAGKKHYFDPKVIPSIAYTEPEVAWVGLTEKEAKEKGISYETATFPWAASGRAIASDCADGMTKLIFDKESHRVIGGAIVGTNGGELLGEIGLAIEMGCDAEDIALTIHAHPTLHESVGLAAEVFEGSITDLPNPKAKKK
T1 sequence (P06715 whole entry): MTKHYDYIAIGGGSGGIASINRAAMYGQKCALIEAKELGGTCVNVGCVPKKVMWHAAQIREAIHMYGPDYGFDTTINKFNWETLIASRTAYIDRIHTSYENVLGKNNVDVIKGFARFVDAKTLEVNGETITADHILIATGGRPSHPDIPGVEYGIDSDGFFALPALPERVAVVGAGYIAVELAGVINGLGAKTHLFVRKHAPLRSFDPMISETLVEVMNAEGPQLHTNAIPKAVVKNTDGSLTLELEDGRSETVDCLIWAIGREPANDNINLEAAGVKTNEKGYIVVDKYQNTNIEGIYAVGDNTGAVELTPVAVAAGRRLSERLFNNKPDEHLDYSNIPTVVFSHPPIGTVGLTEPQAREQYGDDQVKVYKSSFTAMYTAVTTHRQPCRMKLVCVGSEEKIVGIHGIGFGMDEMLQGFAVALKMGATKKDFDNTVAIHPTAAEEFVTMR

As to E3 (Escherichia coli K-12), in the series with O=[Te](O)O (1 mM NADPH, pH 6, 37 °C), the Km came to 47.94 µM and the Vmax is 84.5 µmol/min/mg.
Take AhpF (Escherichia coli K-12): in the series with O=[Te](O)O (1 mM NADH, pH 10, 37 °C), the Km came to 819.6 µM and the Vmax was 77900 µmol/min/mg.
Regarding YkgC (Escherichia coli K-12), in the series with O=[Te](O)O (1 mM NADH, pH 9, 37 °C), the Km is 517.1 µM and the Vmax was 2700 µmol/min/mg.
Consider NorW (Escherichia coli K-12), for which, in the series on O=[Te](O)O (1 mM NADH, pH 11, 42 °C), the Km worked out at 694.9 µM and the Vmax was found to be 5350 µmol/min/mg.
For the molecule TrxB (Escherichia coli K-12), in the series with O=[Te](O)O (1 mM NADPH, pH 10, 37 °C), the Km amounted to 114.5 µM and the Vmax was 9590 µmol/min/mg.
For GorA (Escherichia coli K-12), in the series with O=[Te](O)O (1 mM NADPH, pH 9, 37 °C), the Km was 89.47 µM and the Vmax came to 6310 µmol/min/mg.
Take `O=[Te](O)O` [tellurite]: the “Ki apparent” value on GorA came to 232.7 µM; on TrxB it was 37.13 µM; at E3, 63.01 µM.
